Data as given in US20040043420A1, “Method of identifying conformation-sensitive binding peptides and uses thereof” (priority 2003, published 2004).
Residue numbers refer to the chain shown, from its start. No end group written: not given here.

T1: ER α (UniProt P03372 1-595, limits assumed)
T1 construct: also called estrogen receptor α; ERα-ERE
T1 sequence (looked up): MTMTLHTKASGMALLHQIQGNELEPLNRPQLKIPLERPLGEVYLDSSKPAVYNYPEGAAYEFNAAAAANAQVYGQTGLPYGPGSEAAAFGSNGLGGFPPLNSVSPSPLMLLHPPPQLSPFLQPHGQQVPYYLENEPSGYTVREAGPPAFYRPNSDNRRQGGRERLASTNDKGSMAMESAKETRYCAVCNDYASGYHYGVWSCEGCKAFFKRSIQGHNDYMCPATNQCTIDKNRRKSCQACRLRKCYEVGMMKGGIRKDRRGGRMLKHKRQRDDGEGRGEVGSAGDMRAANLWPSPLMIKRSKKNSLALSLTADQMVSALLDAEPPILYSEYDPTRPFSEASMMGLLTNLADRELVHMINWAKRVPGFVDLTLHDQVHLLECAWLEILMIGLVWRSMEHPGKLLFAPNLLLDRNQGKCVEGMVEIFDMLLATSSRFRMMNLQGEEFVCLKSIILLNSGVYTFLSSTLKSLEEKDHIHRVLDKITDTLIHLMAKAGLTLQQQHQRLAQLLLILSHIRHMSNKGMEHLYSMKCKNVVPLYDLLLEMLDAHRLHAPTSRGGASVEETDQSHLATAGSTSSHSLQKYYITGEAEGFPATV

T2: Gal4 transcriptional activation domain (AD) fused in frame with AR (yeast, UniProt P10275 1-920, limits assumed)
T2 sequence (looked up): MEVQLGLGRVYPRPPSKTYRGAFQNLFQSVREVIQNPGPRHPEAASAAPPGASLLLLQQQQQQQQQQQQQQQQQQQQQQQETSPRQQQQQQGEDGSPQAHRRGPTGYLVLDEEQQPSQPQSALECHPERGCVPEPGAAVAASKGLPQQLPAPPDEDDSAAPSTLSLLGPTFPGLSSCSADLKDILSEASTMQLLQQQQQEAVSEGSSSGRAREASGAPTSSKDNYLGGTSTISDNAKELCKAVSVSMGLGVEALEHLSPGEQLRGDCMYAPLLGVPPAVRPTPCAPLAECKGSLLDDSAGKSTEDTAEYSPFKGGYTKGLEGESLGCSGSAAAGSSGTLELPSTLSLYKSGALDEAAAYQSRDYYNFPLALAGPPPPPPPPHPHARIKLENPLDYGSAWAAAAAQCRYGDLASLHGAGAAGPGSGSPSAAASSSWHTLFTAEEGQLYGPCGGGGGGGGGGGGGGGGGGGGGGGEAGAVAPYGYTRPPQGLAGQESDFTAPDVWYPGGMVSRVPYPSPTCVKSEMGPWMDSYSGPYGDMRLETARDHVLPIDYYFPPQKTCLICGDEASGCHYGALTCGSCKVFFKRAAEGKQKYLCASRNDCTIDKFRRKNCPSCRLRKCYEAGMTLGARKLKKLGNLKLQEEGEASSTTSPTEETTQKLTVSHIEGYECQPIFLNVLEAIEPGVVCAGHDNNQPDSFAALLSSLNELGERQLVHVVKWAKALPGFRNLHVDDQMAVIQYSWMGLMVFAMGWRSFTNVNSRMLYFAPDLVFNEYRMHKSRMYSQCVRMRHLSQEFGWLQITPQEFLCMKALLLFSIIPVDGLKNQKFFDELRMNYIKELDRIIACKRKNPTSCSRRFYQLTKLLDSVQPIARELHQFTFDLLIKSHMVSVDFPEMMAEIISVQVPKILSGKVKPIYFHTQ

T3: estrogen receptor (ER) α as a carboxy-terminal fusion to the Gal4-activation domain (yeast, UniProt P03372 1-595, limits assumed)
T3 sequence (looked up): T1 sequence (looked up)

B1: B8A10 (peptide)
chain: MKLLSSIEQACDICRLKKLKCSKEKPKCAKCLKNNWECRYSPKTKRSPLTRAHLTEVESRLERLEQLFLLIFPREDLDMILKMDSLQDIKALLTGLFVQDNVNKDAVTDRLASVETDMPLTLRQHRISATSSSEESSNKGQRQLTVSEFVNWDAVVPWSELVALLDLQPS
B2: B18C4 (peptide)
chain: MKLLSSIEQACDICRLKKLKCSKEKPKCAKCLKNNWECRYSPKTKRSPLTRAHLTEVESRLERLEQLFLLIFPREDLDMILKMDSLQDIKALLTGLFVQDNVNKDAVTDRLASVETDMPLTLRQHRISATSSSEESSNKGQRQLTVSEFDSPWVWFGGEPGLNLLDLQPS
B3: M2H3 (peptide)
chain: MKLLSSIEQACDICRLKKLKCSKEKPKCAKCLKNNWECRYSPKTKRSPLTRAHLTEVESRLERLEQLFLLIFPREDLDMILKMDSLQDIKALLTGLFVQDNVNKDAVTDRLASVETDMPLTLRQHRISATSSSEESSNKGQRQLTVSEFRQSFVSEILGGGWLPLDLQPS
B4: B22F6 (peptide)
chain: MKLLSSIEQACDICRLKKLKCSKEKPKCAKCLKNNWECRYSPKTKRSPLTRAHLTEVESRLERLEQLFLLIFPREDLDMILKMDSLQDIKALLTGLFVQDNVNKDAVTDRLASVETDMPLTLRQHRISATSSSEESSNKGQRQLTVSEFLSGLEMEVVLWHYGRLDLQPS
B5: B6A1 (peptide)
chain: MKLLSSIEQACDICRLKKLKCSKEKPKCAKCLKNNWECRYSPKTKRSPLTRAHLTEVESRLERLEQLFLLIFPREDLDMILKMDSLQDIKALLTGLFVQDNVNKDAVTDRLASVETDMPLTLRQHRISATSSSEESSNKGQRQLTVSEFTGSRLLLKLLRFPDSSTCSQA
B6: B3E2 (peptide)
chain: MKLLSSIEQACDICRLKKLKCSKEKPKCAKCLKNNWECRYSPKTKRSPLTRAHLTEVESRLERLEQLFLLIFPREDLDMILKMDSLQDIKALLTGLFVQDNVNKDAVTDRLASVETDMPLTLRQHRISATSSSEESSNKGQRQLTVSEFGGSVLLRELLCCYDALEPTTTR
B7: B5H10 (peptide)
chain: MKLLSSIEQACDICRLKKLKCSKEKPKCAKCLKNNWECRYSPKTKRSPLTRAHLTEVESRLERLEQLFLLIFPREDLDMILKMDSLQDIKALLTGLFVQDNVNKDAVTDRLASVETDMPLTLRQHRISATSSSEESSNKGQRQLTVSEFSPPSSLLALLLGGKSLEPLPIRYKNVKRQFTSNSRGSVDLQPS
B8: B6C4 (peptide)
chain: MKLLSSIEQACDICRLKKLKCSKEKPKCAKCLKNNWECRYSPKTKRSPLTRAHLTEVESRLERLEQLFLLIFPREDLDMILKMDSLQDIKALLTGLFVQDNVNKDAVTDRLASVETDMPLTLRQHRISATSSSEESSNKGQRQLTVSEFDRSSILVSLLSMVETLDLQPS
B9: B1A1 (peptide)
chain: MKLLSSIEQACDICRLKKLKCSKEKPKCAKCLKNNWECRYSPKTKRSPLTRAHLTEVESRLERLEQLFLLIFPREDLDMILKMDSLQDIKALLTGLFVQDNVNKDAVTDRLASVETDMPLTLRQHRISATSSSEESSNKGQRQLTVSEFCPVGLLVHLLMQ
B10: B1G8 (peptide)
chain: B9 chain with C150T, P151S, G153S, L154R, H157T, M160L

The binders below were run against T1, ER α (assay: phage isolated on ERα-ERE; Buffer).
Wherever Fold Induction (ligand-induced β-galactosidase, two-hybrid) is given: test concentration or dose not given here.

Row | binding result | Binder
1 | binds | SSDWCFGWGGWCASEAVSR (not fully specified; cysteine pairing not given here) [10B]
2 | binds | SRSYHGEWGVWTLSR [7B]
3 | binds | SRWWDTSWWLEELSR [6B]
4 | binds | SSRPTAEWFRENLSR [5B]
5 | binds | SSRPSPSFWEKQLSR [4B]
6 | binds | SSRIADLFWRLEPSR [1B]
7 | binds | SRNWDWAALELLPYPHPSR [9B]
8 | binds | SSRPDAAFFGAKLSR [3B]

The binders below were run against T2, Gal4 transcriptional activation domain … (assay: cell-based or functional assay).

Row | β-galactosidase activity (yeast two-hybrid), CPA | β-galactosidase activity (yeast two-hybrid), DHT | β-galactosidase activity (yeast two-hybrid), No Lig | β-galactosidase activity (yeast two-hybrid), RU | β-galactosidase activity (yeast two-hybrid), MPA | β-galactosidase activity (yeast two-hybrid), Test | Binder
9 | 0.395 | 0.616 | 0.875 | 0.4 |  |  | B1
10 | 1.53 | 1.43 | 1.12 | 1.5 | 1.44 | 0.969 | B2
11 | 8.59 | 24.1 | 2.53 | 6.8 | 19.2 | 26.6 | B3
12 | 1.23 | 7.85 | 0.794 | 1.2 | 4.56 | 7.77 | B4

Biological target: T2, Gal4 transcriptional activation domain …
Assay: cell-based or functional assay
Remark: another data set of the same source

Row | Fold induction (yeast two-hybrid) [fold] | Binder
13 | 1 | B1
14 | 1 | B2
15 | 10 | B3
16 | 10 | B4

Each binder was assayed against T3, estrogen receptor (ER) α as a … (assay: cell-based or functional assay).

Row | Fold Induction (ligand-induced β-galactosidase, two-hybrid) [fold] | Binder
17 | 3.5 | B5
18 | 3.5 | B6
19 | 4.5 | B7
20 | 2.5 | B8
21 | 11 | B9
22 | 6 | B10

The binders below were run against T1, ER α (assay: phage isolated on ERα on plastic; ICI 182,780).

Row | binding result | Binder
23 | binds | SSDCESLTSYPHLKALCSR [5PI]
24 | binds | SSSTPGWWEWDWASR [1PI]
25 | binds | SSYWDGSWRRKETCVSCSR [2PI]
26 | binds | SSGKTREHYREGTSR [7PI]
27 | binds | SSTATALRDRLAYSR [6PI]
28 | binds | SSRALALFPVGMESR [4PI]
29 | binds | SSRTAEDYCFFADDYWCSR (also called 16E) [3PI]
